Results reported in paper PMC11928522.

How the values were obtained:
[1] = molecular target: T1, LPA66-BFP;MBP-GFP-MORF8 (diffuse) (Arabidopsis thaliana;Arabidopsis …, UniProt Q9FI80;Q9LKA5 35-515;1-395, |); experiment: EMSA
T1 sequence 1: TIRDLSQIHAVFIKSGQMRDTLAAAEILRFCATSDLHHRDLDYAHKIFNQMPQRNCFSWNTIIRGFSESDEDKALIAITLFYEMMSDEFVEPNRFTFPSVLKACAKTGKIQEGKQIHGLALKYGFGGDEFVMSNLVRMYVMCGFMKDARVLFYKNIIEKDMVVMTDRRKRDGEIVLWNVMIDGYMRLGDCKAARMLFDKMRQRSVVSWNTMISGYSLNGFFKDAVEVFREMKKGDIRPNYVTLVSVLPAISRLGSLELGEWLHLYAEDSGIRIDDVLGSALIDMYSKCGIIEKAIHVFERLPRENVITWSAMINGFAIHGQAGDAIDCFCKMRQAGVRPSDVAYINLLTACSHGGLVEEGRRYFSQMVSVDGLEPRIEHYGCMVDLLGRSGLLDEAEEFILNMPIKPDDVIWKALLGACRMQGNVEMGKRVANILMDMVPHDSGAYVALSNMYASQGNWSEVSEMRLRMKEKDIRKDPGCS
T1 sequence 2: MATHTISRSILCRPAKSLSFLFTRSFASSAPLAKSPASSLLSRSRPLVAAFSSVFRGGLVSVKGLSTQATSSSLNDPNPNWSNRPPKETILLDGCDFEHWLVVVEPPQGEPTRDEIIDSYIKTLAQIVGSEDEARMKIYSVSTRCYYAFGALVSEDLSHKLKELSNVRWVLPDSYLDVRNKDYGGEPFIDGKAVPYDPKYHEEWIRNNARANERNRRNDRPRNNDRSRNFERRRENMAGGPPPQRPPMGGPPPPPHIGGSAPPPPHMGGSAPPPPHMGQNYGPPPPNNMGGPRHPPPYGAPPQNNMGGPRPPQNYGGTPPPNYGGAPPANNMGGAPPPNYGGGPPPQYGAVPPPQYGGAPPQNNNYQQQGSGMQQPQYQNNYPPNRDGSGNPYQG

[2] = molecular target: T2, LPA66-BFP (Arabidopsis thaliana, UniProt Q9FI80 35-515); experiment: EMSA after sedimentation
T2 sequence: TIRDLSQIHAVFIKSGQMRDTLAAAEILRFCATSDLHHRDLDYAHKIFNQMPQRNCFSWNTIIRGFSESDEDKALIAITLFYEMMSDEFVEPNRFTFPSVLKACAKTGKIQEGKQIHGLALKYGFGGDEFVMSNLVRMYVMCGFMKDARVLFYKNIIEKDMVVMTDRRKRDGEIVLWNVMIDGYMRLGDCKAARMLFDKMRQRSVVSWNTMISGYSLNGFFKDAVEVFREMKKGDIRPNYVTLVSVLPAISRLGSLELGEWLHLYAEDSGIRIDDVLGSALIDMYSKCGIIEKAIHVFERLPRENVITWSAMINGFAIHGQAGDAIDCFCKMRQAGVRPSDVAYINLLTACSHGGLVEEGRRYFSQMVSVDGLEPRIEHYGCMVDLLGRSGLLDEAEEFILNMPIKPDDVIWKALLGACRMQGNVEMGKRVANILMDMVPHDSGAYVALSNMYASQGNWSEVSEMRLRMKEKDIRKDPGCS

[3] = molecular target: T3, GFP-MORF8 (condensates) (Arabidopsis thaliana, UniProt Q9LKA5 1-395); experiment: condensate partitioning
T3 sequence: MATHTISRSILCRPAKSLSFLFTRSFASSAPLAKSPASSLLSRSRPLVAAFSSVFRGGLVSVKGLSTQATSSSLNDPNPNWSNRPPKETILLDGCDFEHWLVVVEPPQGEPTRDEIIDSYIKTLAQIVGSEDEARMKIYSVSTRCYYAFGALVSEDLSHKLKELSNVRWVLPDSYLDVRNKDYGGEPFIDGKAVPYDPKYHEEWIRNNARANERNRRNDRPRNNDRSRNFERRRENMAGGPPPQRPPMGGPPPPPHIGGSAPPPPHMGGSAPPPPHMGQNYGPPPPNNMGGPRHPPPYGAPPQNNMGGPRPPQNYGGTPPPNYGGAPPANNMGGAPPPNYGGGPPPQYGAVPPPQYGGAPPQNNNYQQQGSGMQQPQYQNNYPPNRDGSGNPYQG

Measured: binding result

B1: psbF RNA probe (ssRNA)
RNA: UAGCUGUACCUACCGUUUCUUUU
binds: all assays above
